Assay results: US20130315910A1 (Xencor, published 2013)

T1: mFcγRIIb (Mus musculus, UniProt P08101)
T1 construct: extracellular region, C-terminal His- and GST-tag; also called mouse FcγRII
T1 sequence (receptor extracellular region, looked up): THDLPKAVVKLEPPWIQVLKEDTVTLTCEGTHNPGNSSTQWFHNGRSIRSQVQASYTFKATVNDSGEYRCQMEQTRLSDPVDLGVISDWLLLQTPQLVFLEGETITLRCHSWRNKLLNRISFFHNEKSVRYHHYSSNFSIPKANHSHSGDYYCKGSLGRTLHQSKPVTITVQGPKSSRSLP

T2: human FcγRIIa (131R), His- and GST-tagged (human, UniProt P12318 34-217)
T2 construct: Expressed in HEK293T cells, purified by nickel chromatography; also called R131 FcγRIIa; not shown: 6xHis and GST tags of the pTT5 vector
T2 sequence (looked up): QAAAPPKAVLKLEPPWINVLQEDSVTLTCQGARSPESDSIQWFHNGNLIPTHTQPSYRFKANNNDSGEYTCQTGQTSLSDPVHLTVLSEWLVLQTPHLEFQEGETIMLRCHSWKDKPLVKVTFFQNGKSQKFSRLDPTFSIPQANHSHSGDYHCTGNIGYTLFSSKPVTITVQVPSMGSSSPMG

T3: human FcγRIIb receptor protein (R&D Systems) (human, UniProt P31994 46-217)
T3 construct: Bought protein injected over captured antibody in Biacore; also called CD32b
T3 sequence (looked up): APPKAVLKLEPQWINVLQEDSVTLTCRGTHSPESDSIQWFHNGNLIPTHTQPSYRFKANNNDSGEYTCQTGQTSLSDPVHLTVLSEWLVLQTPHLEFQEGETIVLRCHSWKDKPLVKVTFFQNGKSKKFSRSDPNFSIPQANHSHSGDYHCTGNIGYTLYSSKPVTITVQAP

T4: cynoFcγRIIb (Macaca fascicularis, UniProt A0A140HDP4)
T4 construct: extracellular region, C-terminal His- and GST-tag; also called cynomolgus monkey FcγRIIb
T4 sequence (receptor extracellular region): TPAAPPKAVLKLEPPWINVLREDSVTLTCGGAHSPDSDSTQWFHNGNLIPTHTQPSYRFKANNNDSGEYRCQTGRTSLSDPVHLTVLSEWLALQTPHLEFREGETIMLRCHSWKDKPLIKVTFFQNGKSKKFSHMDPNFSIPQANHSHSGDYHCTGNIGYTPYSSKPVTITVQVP

T5: human FcγRIIb on cells (transfected HEK293T cells; primary human B cells) (human, UniProt P31994 43-310)
T5 construct: whole, on cells; also called CD32b
T5 sequence (looked up): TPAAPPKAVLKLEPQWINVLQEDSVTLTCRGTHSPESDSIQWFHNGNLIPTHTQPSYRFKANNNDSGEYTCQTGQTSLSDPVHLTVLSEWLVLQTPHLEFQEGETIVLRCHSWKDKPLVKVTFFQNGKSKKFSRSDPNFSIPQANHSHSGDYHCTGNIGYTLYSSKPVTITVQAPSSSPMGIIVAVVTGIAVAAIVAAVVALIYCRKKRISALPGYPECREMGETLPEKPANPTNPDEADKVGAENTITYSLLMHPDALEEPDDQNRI

T6: human FcγRIIa (131H), His- and GST-tagged (human, UniProt P12318 34-217)
T6 construct: also called H131 FcγRIIa; HIIa; not shown: 6xHis and GST tags of the pTT5 vector
T6 sequence (looked up): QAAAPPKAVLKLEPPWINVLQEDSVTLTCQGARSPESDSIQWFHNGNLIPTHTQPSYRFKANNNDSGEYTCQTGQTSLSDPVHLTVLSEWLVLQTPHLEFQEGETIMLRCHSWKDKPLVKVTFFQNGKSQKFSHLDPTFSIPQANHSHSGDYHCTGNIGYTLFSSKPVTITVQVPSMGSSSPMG


Columns and labels:
mFcγRIIb = target: T1, mFcγRIIb; test: SPR
[1] = target: T2, human FcγRIIa (131R), His- and …; test: SPR
[2] = target: T3, human FcγRIIb receptor protein (R&D …); test: SPR
cynoFcγRIIb = target: T4, cynoFcγRIIb; test: SPR, Kd
Protocol: Variants were screened for receptor affinity using Biacore™ technology, also referred to as Biacore herein, a surface plasmon resonance (SPR) based technology for studying biomolecular interactions in real time. SPR measurements were performed using a Biacore 3000 instrument (Biacore, Piscataway, N.J.). A protein A/G (Pierce Biotechnology) CM5 biosensor chip (Biacore) was generated using a standard primary amine coupling protocol. All measurements were performed using HBS-EP buffer (10 mM HEPES pH 7.4, 0.15 M NaCl, 3 mM EDTA, 0.005% vol/vol surfactant P20, Biacore). Antibodies at 20 nM or 50 nM in HBS-EP buffer were immobilized on the protein A/G surface and FcγRs were injected. After each cycle, the surface was regenerated by injecting glycine buffer (10 mM, pH 1.5). Data were processed by zeroing time and response before the injection of FcγR and by subtracting appropriate nonspecific signals (response of reference channel and injection of running buffer). Kinetic analyses were performed by global fitting of binding data with a 1:1 Langmuir binding model using BIAevaluation software (Biacore).
Variant antibodies were tested for their affinity to mouse or cynologous monkey FcγRs using Biacore SPR as described above. Specifically, antibodies were first immobilized on a protein A/G chip to high density, and then followed by injections of the extracellular domain of the mouse or cynologous monkey FcγR of interest. Both association and dissociation phases were tracked in real time using the Biacore technology.

[3] = target: T5, human FcγRIIb on cells (transfected …); test: flow cytometry on FcγRIIb-transfected 293T cells [middle left panel]
Protocol: In order to validate the Biacore data and evaluate receptor binding of the variants on the cell surface, binding of select antibodies to cells expressing FcγRIIb was measured. […] HEK293T cells in DMEM with 10% FBS were transfected with human FcγRIIb cDNA in pCMV6 expression vector (Origene Technologies, Rockville, Md.), cultured for 3 days, harvested, washed twice in PBS, resuspended in PBS with 0.1% BSA (PBS/BSA), and aliquoted at 2×10^5 cells per well into 96-well microtiter plates. Fc variant antibodies were serially diluted in PBS/BSA then added to the cells and incubated with mixing for 1 h at room temperature. After extensive washing with PBS/BSA, phycoerythrin (PE)-labeled anti-human-Fab-specific goat F(ab′)2 fragment was added for detection. Cells were incubated for 30 min at room temperature, washed, and resuspended in PBS/BSA. Binding was evaluated using a FACSCanto II flow cytometer (BD Biosciences, San Jose, Calif.), and the mean fluorescence intensity (MFI) was plotted as a function of antibody concentration using Graph Pad Prism software (GraphPad Software, San Diego, Calif.) from which half-maximal binding (EC50) values were determined by sigmoidal dose response modeling.

[4] = target: T7, human FcγRI receptor protein (R&D Systems) (human, UniProt P12314 16-288); test: SPR
T7 construct: also called soluble FcγRI; solFcγRI
T7 sequence (P12314 16-288 limits assumed): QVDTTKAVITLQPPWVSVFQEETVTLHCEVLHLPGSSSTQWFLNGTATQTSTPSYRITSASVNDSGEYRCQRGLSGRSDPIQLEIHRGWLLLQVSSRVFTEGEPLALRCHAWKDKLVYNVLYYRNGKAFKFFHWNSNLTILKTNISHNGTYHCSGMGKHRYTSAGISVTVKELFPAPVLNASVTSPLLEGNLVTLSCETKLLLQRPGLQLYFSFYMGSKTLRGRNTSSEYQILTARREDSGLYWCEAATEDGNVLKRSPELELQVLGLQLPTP

[5] = target: T6, human FcγRIIa (131H), His- and …; test: SPR
[6] = target: T8, human FcγRIIIa (158V), His- and GST-tagged (human, UniProt P08637 17-208); test: SPR
T8 construct: also called V158 FcγRIIIa; VIIIa; not shown: 6xHis and GST tags of the pTT5 vector
T8 sequence (P08637 17-208 F176V): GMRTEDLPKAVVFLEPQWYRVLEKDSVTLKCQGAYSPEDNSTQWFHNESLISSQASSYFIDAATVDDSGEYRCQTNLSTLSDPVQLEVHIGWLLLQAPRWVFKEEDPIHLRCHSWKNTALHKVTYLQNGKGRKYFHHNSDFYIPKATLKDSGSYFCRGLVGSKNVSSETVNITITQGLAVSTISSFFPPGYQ

Row | Fold vs WT IgG1 (Kd) (mFcγRIIb) [fold] | Fold vs WT IgG1 [1] [fold] | Kd [1] [nM] | Fold vs WT IgG1 [2] [fold] | Kd [2] [nM] | binding result (cynoFcγRIIb) | EC50 (read off the curve) [3] [ng/mL] | Fold vs WT IgG1 [4] [fold] | Kd [4] [nM] | Fold vs WT IgG1 [5] [fold] | Kd [5] [nM] | Fold vs WT IgG1 [6] [fold] | Kd [6] [nM] | binding result [2] | Binder
1 | 0.029 | 5.69 | 151 | 11.4 | 129 | no binding |  |  |  |  |  |  |  |  | L234W/G236D/S239E/S267E (antibody, human IgG1, kappa, HuAM4G7 anti-CD19 IgG1 (m1) with these Fc substitutions, EU index; copies: 2 + 2) heavy: EVQLVESGGGLVKPGGSLKLSCAASGYTFTSYVMHWVRQAPGKGLEWIGYINPYNDGTKYNEKFQGRVTISSDKSISTAYMELSSLRSEDTAMYYCARGTYYYGTRVFDYWGQGTLVTVSSASTKGPSVFPLAPSSKSTSGGTAALGCLVKDYFPEPVTVSWNSGALTSGVHTFPAVLQSSGLYSLSSVVTVPSSSLGTQTYICNVNHKPSNTKVDKKVEPKSCDKTHTCPPCPAPEWLDGPEVFLFPPKPKDTLMISRTPEVTCVVVDVEHEDPEVKFNWYVDGVEVHNAKTKPREEQYNSTYRVVSVLTVLHQDWLNGKEYKCKVSNKALPAPIEKTISKAKGQPREPQVYTLPPSREEMTKNQVSLTCLVKGFYPSDIAVEWESNGQPENNYKTTPPVLDSDGSFFLYSKLTVDKSRWQQGNVFSCSVMHEALHNHYTQKSLSLSPGK light: DIVMTQSPATLSLSPGERATLSCRSSKSLQNVNGNTYLYWFQQKPGQSPQLLIYRMSNLNSGVPDRFSGSGSGTEFTLTISSLEPEDFAVYYCMQHLEYPITFGAGTKLEIKRTVAAPSVFIFPPSDEQLKSGTASVVCLLNNFYPREAKVQWKVDNALQSGNSQESVTEQDSKDSTYSLSSTLTLSKADYEKHKVYACEVTHQGLSSPVTKSFNRGEC
2 |  | 30.7 | 28 | 29.2 | 50.2 |  | ~10 | 1.98 | 0.166 | 10.9 | 59.2 | 0.0448 | 4270 |  | V266M/S267E (antibody, human IgG1, kappa, HuAM4G7 anti-CD19 IgG1 (m1) with these Fc substitutions, EU index; copies: 2 + 2) heavy: not shown light: DIVMTQSPATLSLSPGERATLSCRSSKSLQNVNGNTYLYWFQQKPGQSPQLLIYRMSNLNSGVPDRFSGSGSGTEFTLTISSLEPEDFAVYYCMQHLEYPITFGAGTKLEIKRTVAAPSVFIFPPSDEQLKSGTASVVCLLNNFYPREAKVQWKVDNALQSGNSQESVTEQDSKDSTYSLSSTLTLSKADYEKHKVYACEVTHQGLSSPVTKSFNRGEC
3 | 0.013 |  |  |  |  | no binding |  |  |  |  |  |  |  | no binding | A330H (antibody, human IgG1, kappa, HuAM4G7 anti-CD19 IgG1 (m1) with this Fc substitution, EU index; copies: 2 + 2) heavy: not shown light: DIVMTQSPATLSLSPGERATLSCRSSKSLQNVNGNTYLYWFQQKPGQSPQLLIYRMSNLNSGVPDRFSGSGSGTEFTLTISSLEPEDFAVYYCMQHLEYPITFGAGTKLEIKRTVAAPSVFIFPPSDEQLKSGTASVVCLLNNFYPREAKVQWKVDNALQSGNSQESVTEQDSKDSTYSLSSTLTLSKADYEKHKVYACEVTHQGLSSPVTKSFNRGEC
4 | 2.63 |  |  |  |  | no binding |  |  |  |  |  |  |  | no binding | A330D (antibody, human IgG1, kappa, HuAM4G7 anti-CD19 IgG1 (m1) with this Fc substitution, EU index; copies: 2 + 2) heavy: not shown light: DIVMTQSPATLSLSPGERATLSCRSSKSLQNVNGNTYLYWFQQKPGQSPQLLIYRMSNLNSGVPDRFSGSGSGTEFTLTISSLEPEDFAVYYCMQHLEYPITFGAGTKLEIKRTVAAPSVFIFPPSDEQLKSGTASVVCLLNNFYPREAKVQWKVDNALQSGNSQESVTEQDSKDSTYSLSSTLTLSKADYEKHKVYACEVTHQGLSSPVTKSFNRGEC
5 | 0.016 |  |  |  |  | no binding |  |  |  |  |  |  |  | no binding | L328E (antibody, human IgG1, kappa, HuAM4G7 anti-CD19 IgG1 (m1) with this Fc substitution, EU index; copies: 2 + 2) heavy: not shown light: DIVMTQSPATLSLSPGERATLSCRSSKSLQNVNGNTYLYWFQQKPGQSPQLLIYRMSNLNSGVPDRFSGSGSGTEFTLTISSLEPEDFAVYYCMQHLEYPITFGAGTKLEIKRTVAAPSVFIFPPSDEQLKSGTASVVCLLNNFYPREAKVQWKVDNALQSGNSQESVTEQDSKDSTYSLSSTLTLSKADYEKHKVYACEVTHQGLSSPVTKSFNRGEC
6 |  | 41.7 | 20.6 | 40.6 | 36.1 |  | ~10 | 3.52 | 0.0935 | 0.765 | 845 | 3.15 | 60.8 |  | anti-CD19 antibody HuAM4G7 IgG1 S267E/H268E (antibody, Positions in EU numbering; copies: 2 + 2) heavy: not shown light: DIVMTQSPATLSLSPGERATLSCRSSKSLQNVNGNTYLYWFQQKPGQSPQLLIYRMSNLNSGVPDRFSGSGSGTEFTLTISSLEPEDFAVYYCMQHLEYPITFGAGTKLEIKRTVAAPSVFIFPPSDEQLKSGTASVVCLLNNFYPREAKVQWKVDNALQSGNSQESVTEQDSKDSTYSLSSTLTLSKADYEKHKVYACEVTHQGLSSPVTKSFNRGEC
